Reference: patent publication US8058507B2, “HOPM1 mediated disease resistance to Pseudomonas syringae in Arabidopsis” (priority 2007, dated 2011)

Columns and labels:
[1] = test system: hrcC mutant; assay: Bacterial multiplication in HopM1 transgenic Arabidopsis plants; type: in vivo, Pseudomonas syringae; conditions: full-length HopM1 expressed in transgenic Arabidopsis
Protocol: (§1) Following inoculation, infected plants were monitored daily over a 3- to 4-day period for symptom development and bacterial multiplication. For experiments described in FIGS. 1 and 5, plants were sprayed with 30 μM dexamethasone (DEX) 24 h before bacterial inoculation (1×10^6 cfu/ml).
(§2) Leaves were harvested and surface sterilized as follows: 1) whole leaves were removed from a host plant and gently mixed in a 70% ethanol solution for 1 minute. Leaves were blotted briefly on paper towels then rinsed in sterile distilled water for 1 minute, then blotted dry on paper towels. Leaf disks were excised from leaves with a 0.5 cm^2 or smaller cork borer, depending on the size of the sample leaves; 2) leaf disks from the leaves of 2 or more independent replicate plants were pooled for a single tissue sample and placed in a 1.5-mL microfuge tube with 100 μL sterile distilled water, the amount of leaf tissue per tube was recorded as leaf surface area. Three or more samples were harvested for each time point. […] The number of serial dilutions necessary to get countable colonies were determined for each sample, however dilutions to 10^−7 were usually sufficient for any bacterial strain; 7) The samples were plated on the appropriate medium (e.g., Low salt Luria Bertani) supplemented with the necessary antibiotics to select for the specific inoculated bacterial strain. […]

[2] = test system: AtMIN2, AtMIN7, and AtMIN 10; assay: Immunoblot of AtMIN-HA proteins transiently co-expressed with HopM1 in N. benthamiana leaves; type: cell-based, Arabidopsis thaliana; conditions: DEX-induced expression in N. benthamiana leaves
Protocol: Oligonucleotide primers used for amplifying hopMl and AtMIN genes from Pst DC3000 genomic DNA or Arabidopsis total cDNA, as applicable, used for creating these expression vectors are shown in FIG. 14. Two days after leaf infiltration, 0.3 μM DEX was applied to induce the expression of HopM11-712, or HopM11-300 or HopM11-712. Three hours after DEX treatment, leaf discs were taken for subsequent analyses using immunoblotting or co-immunoprecipitation experiments (see, EXAMPLES herein for procedures).
Plant cells expressing 6×His-HopM1 and AtMIN-HA proteins in N. benthamiana leaves were engineered to co-express a second transiently expressed protein, either full-length 6×His-HopM1 or 6×His-HopM11-300. […] Specifically, AtMIN7-HA was pulled down with HopM11-300, but not with 6×His-HopM1301-712. Please note that membrane associated AtMIN 10-HA was preferably eliminated during bacterial infection. Arrows indicate lanes in which DEX-induced expression of full-length HopM1 destabilized AtMIN2, AtMIN7, and AtMIN 10 (FIG. 6B).
Expression Plasmids for Nicotiana cells: For transient expression studies in Nicotiana benthamiana; expression plasmids were engineered to express C-terminal HA epitope-tagged AtMIN proteins using a constitutive CaMV 35S promoter operably linked to AtMIN sequences. […]

[3] = test system: AtMIN proteins; assay: Immunoblot of AtMIN proteins co-expressed with HopM1 in yeast; type: cell-based, Arabidopsis thaliana; conditions: co-expression in yeast
Source text: AtMIN fusion proteins expressed from pB42AD were visualized by the HA epitope antibody, as was AtMIN10-HA. HopM1 fusion proteins expressed from pGilda were visualized by the LexA antibody. Coomassie Brilliant Blue-stained gels were used as loading controls. […] AtMIN12 (a putative protein predicted to be targeted to the chloroplast) was not destabilized.
HopM11-300 or full-length HopM1 pGILDA and each individual test AtMIN pB42AD were co-transformed into yeast cells as described in EXAMPLE III.
Immunoblot analysis was then performed on yeast cells lines that expressed one each of the 21 AtMIN proteins co-expressed with either HopM11-300 or full-length HopM1(1-712). […] For comparison, AtMIN12 (a hypothetical protein predicted to be targeted to the chloroplast) was not destabilized (FIG. 6A).

[4] = test system: Pst DC3000; assay: Bacterial multiplication and disease symptoms in HopM1 transgenic Arabidopsis plants; type: in vivo, Pseudomonas syringae; conditions: full-length HopM1 expressed in transgenic Arabidopsis
Protocol: as §1, §2

[5] = test system: Pst DC3000 ΔCEL mutant; assay: as above; type: in vivo, Pseudomonas syringae; conditions: protein expressed in transgenic Arabidopsis (Col-0 gl1), DEX-induced
Protocol: as §1, §2

[6] = test system: AtMIN7; assay: Immunoblot of endogenous AtMIN7 in Arabidopsis leaves infiltrated with ΔCEL mutant bacteria (pORF43); type: in vivo; conditions: HopM1 delivered by 1×10^8 CFU/ml ΔCEL mutant bacteria (pORF43)
Protocol: In brief: leaf disc fractions were homogenized in 1×SDS-polyacrylamide gel electrophoresis (PAGE) sample buffer, boiled for 5 min, and centrifuged for 2 minutes. Proteins in the supernatant were separated on SDS-PAGE gels and transferred to Immobilon-P membrane for immunoblotting procedures (Millipore Corp., Bedford, Mass.).
AtMIN7 is a low-abundance protein in Arabidopsis plants, however it is detected with a rabbit polyclonal antibody, described herein. […] AtMIN7 was absent on the immunoblots of leaves infiltrated with ΔCEL mutant bacteria (pORF43) but not the leaves infiltrated with water or ΔCEL mutant bacteria (FIG. 2C).

B1: full-length HopM1: Pst DC3000 type III effector, 712-aa virulence protein (SEQ ID NO:34) (protein)
chain: MISSRIGGAGGVELSRVNQQHDTVPAQTAHPNAVTAGMNPPLTPDQSGSHATESSSAGAARLNVAARHTQLLQAFKAEHGTAPVSGAPMISSRAALLIGSLLQAEPLPFEVMAEKLSPERYQLKQFQGSDLQQRLEKFAQPGQIPDKAEVGQLIKGFAQSVADQLEHFQLMHDASPATVGQHAKADKATLAVSQTALGEYAGRASKAIGEGLSNSIASLDEHISALDLTLQDAEQGNKESLHADRQALVDAKTTLVGLHADFVKSPEAKRLASVAAHTQLDNVVSDLVTARNTVGGWKGAGPIVAAAVPQFLSSMTHLGYVRLSTSDKLRDTIPETSSDANMLKASIIGMVAGIAHETVNSVVKPMFQAALQKTGLNERLNMVPMKAVDTNTVIPDPFELKSEHGELVKKTPEEVAQDKAFVKSERALLNQKKVQGSSTHPVGELMAYSAFGGSQAVRQMLNDVHQINGQTLSARALASGFGGAVSASSQTLLQLKSNYVDPQGRKIPVFTPDRAESDLKKDLLKGMDLREPSVRTTFYSKALSGIQSSALTSALPPVTAQAEGASGTLSAGAILRNMALAATGSVSYLSTLYTNQSVTAEAKALKAAGMGGATPMLDRTETALNNIRHPNRESLPHTFQKSTLSGIPRVAENAYHMGRGALQLPTQMAVDTVRVVDEGVLNAVASAREALKQPTKDDDALRALEEGLLDPR
modifications: 6xHis tag; Pseudomonas syringae pv. tomato str. DC3000
[1]
  complementation effect on multiplication: did not show this effect
[2]
  destabilization of AtMIN2, AtMIN7 and AtMIN10: destabilized
[3]
  destabilization of AtMIN proteins in yeast: destabilized
[4]
  complementation effect on multiplication: did not show this effect
[5]
  complementation of the virulence defect (multiplication, disease symptoms): almost fully complemented
[6]
  endogenous AtMIN7 protein on immunoblot: absent
